Results on 1 substance are retold here after publication doi:10.1101/2023.12.06.569572.

The target of the assay is Neurofibromin (NF1), recombinant full-length NF1 isoform 2 (human) (UniProt P21359). As to the kind of experiment: mass photometry. Particulars: remark: other sources report otherwise.

Regarding “Neurofibromin (NF1), recombinant full-length NF1 isoform 2, P21359 1-2839”, the stoichiometry N (as a rule, the number of molecules, sites or subunits per partner or assembly) turned out to be 2.
